Measurements: US20250019450A1 (DIAGONAL THERAPEUTICS, published 2025)
Substitutions are numbered along the chain they refer to.

B1: VHH25B1 (VHH)
VHH: QVQLQESGGALVQPGGSLRLSCVVSGFTSDYFAIGWFRQAPGKEREGVSCIGSSDGSTIYSDSVKGRFTISRDNAKNTVYLQMNSLKPEDTGVYYCALDRGRRTIIGYACYATMKYWGKGTPVTVSS
B2: VHH187B1 (VHH)
VHH: EVQLVESGGGLVQPGGSLRLSCAASGFTLDYYAIGWFRQAPGKEREGVSCISSSDRSTWYADSVKGRFTISRDNAKNTVYLQMHSLKPEDTAVYYCATPCYSDYDPEGYEYDYWGQGTQVTVSS
B3: VHH245B1 (VHH)
VHH: QVQLQESGGGLVQAGGSLRLSCAASGSIASINAMGWYRQAPGKQRDFVARIQLSGQTSYAHSVRGRFTISRDNAKNTVYLQMNNLKPEDTAVYVCAASNTGSLYGLRNYWGQGTQVTVSS
B4: VHH72B1 (VHH)
VHH: EVQLVESGGGLVQAGGSLRLSCAASGLTFRNYAMAWFRQAPGKEREFVAGITWGGGLTHYVDSVKGRFTISRDNGKNTVYLQMNSLKSEDTAVYYCAGKTQGSTWYHLTPDGYDYWGQGTQVTVSS
B5: VHH154B1 (VHH)
VHH: QVQLQESGGGLVQVGDSLRLSCVASGRIFGVNTRAWYRQAPGNQRELVAQISSGGNINYADSVKGRFTISMDKFTDTVYLQMNSLKPEDTAIYRCAAHRQHPYADVWGQGTQVSVSS
B6: VHH86B1 (VHH)
VHH: QVQLVESGGGLMQAGGSLRLSCALSRGIFSAYAMGWFRQVQGKEREFVSGISRSGSTTDYVDTAKGRFTISRDNARDTVYLQMNSLKPEDTAVYYCAAVTGTFPSSTYHNANAYHHWGQGTQVTVSS
B7: VHH195B1 (VHH)
VHH: QVQLVESGGGLVQAGGSLRLSCAASGRTFGTYAMGWFRQAPGKERDFVARISNSGAFTHYADSVKGRFTISRDNAKNTVYLHMNSLENGDTAAYYCVATRGTNSAYYTRSTMYEYWGQGTQVTVSS
B8: VHH276B1 (VHH)
VHH: QVQLVESGGGLVQAGASLRLSCAASGRTFSSYAMGWFRQAPGKEREFVAAISGGTPNNIYYTNYKDAVRGRFTISRDNAKNTVYLQMSSLKPEDTAVYYCGATMGRYWNTGGYDYWGQGTQVTVSS
B9: VHH54B1 (VHH)
VHH: QVQLVESGGGLVQAGGSLRLSCAASGGPFSGYVMGWFRQVSGKEREFVAGITGISSTYFADSVKGRFTISRDNAKNMVYLQMNSLKPEDTAVYYCAAVNSFGVIPTSPNGMDYWGKGTLVTVSS
B10: VHH67B1 (VHH)
VHH: QVQLVESGGGLVQAGGSLRLSCAASARIFNSYAVAWFRQTPGKEREFVASISWSGGSTNYADSVKGRFTISRDNAKNTVFLQMNSLKPADTAVYYCAADRNYYPSVLGKYTYWGQGTQVTVSS
B11: VHH50B1 (VHH)
VHH: QVQLVESGGGLVQAGGSLRLSCAASGRAFSRYSMGWFRQAPGKEREFVAANYWSNGWTDYADTVKGRFSISRDNAKNTVYLQMNSLKPEDTAVYYCAGRSSSIPSADVVGYDYWGQGTQVTVSS
B12: VHH104B1 (VHH)
VHH: EVQLVESGGGLVQPGGSLRLFCAASRSIFNINIMGWYRQAPGKQREWLASITSGGSTFYADSVKDRFTISRDSVKNTVYLQMNSLKPEDTAAYYCNRYRSVPLNTVYPWGQGTLVTVSS
B13: VHH136B1 (VHH)
VHH: QVQLQESGGGLVQAGGSLRLSCAAPGRYAVGWFRQAPGKEYEFVAAITVSGGSKYYEDSVKGRFTISRDNAKNTVYLEMNSLKAEDTAVYYCAARTPKFGSGWYNRRGEYDYWGQGTQVTVSS
B14: VHH58B1 (VHH)
VHH: B13 VHH with Q5V, T65A, E78Q
B15: VHH172B1 (VHH)
VHH: B13 VHH with Q5V, T120A
B16: VHH115B1 (VHH)
VHH: QVQLVESGGGLVQAGGSLRLSCLASGRTSNYFMGWFRQAPGKEREFVAAISRSGGGTWYADSVKGRFAISRDNAKNTVNLQMNSLKREDTAVYYCAADRRTGTSVYTVDEYDYWGQGTQVTVSS
B17: VHH108B1 (VHH)
VHH: EVQLVESGGGLVQPGGSLTLSCTASGFRFSDRSMGWYRQAPGKQRELVAAITVGGSTNYADSVKGRFTISRDNAKNTVYLQMNSLKPEDTALYYCNRRYPPDDYWGQGTQVTVSS
B18: VHH97B1 (VHH)
VHH: QVQLVESGGGLAQAGGSLRLSCAASGRTFSNDDMAWFRQAPGKEREFVAHIDRNAASTNYADSVKGRFTISRDNAKNTVYLQMTRLKPEDTAVYYCAADPDHFGTTWYQQYTYWGPGTQVTVSS
B19: VHH321B1 (VHH)
VHH: QVQLVESGGGLVQPGGSLRLSCIASGFTFSDYAMKWVRRPPGKGLEWVSVIDSEGPTIKYSDAVRGRFTISRDNAKNTLYLQMNSLKPEDTAVYYCAKSNGGSAFSSVLYTDRGQGTQVTVSS
B20: VHH32B1 (VHH)
VHH: EVQLVESGGGLVQPGGSLRLSCAASGFTFQNYAMSWLRKAPGEGLEWVSVINSGGGSTLYADSVKGRFTISRDNAKNTLYLQMHSLKSEDTAVYFCAKRRDDSTFGSLLYTHRGQGTQVTVSS
B21: VHH258B1 (VHH)
VHH: QVQLVESGGGLVQAGGSLRLSCAASGRTFSSYVMGWFRQAPGQEREFVAAIMRNGIMTYYADSVKGRFTISRDNAKNTVYLQMNTLKPDDTAVYYCAAASRVGVSISQSSSYTSWGQGTQVTVSS
B22: VHH238B1 (VHH)
VHH: QLQLVESGGGLVQPGGSLRLSCAASGFTFSSYGMSWVRQAPGKGLEWVSYISAGGGTTTYVDFVKGRFTISRDNAKNMLYLQMNSLKPEDTAVYYCVHAADGSRGQGTQVTVSS
B23: VHH137B1 (VHH)
VHH: QVQLVESGGGLVQAGGSLRLSCAASGRTFRTYAMGWFRQAPGKDREVVGIAAWKVASTYYVDYGDSVRGRFTISRDDAKSTVYLQMNNLMPEDTAVYYCAAGAFRTDWRSYAYWGQGTQVTVSS
B24: VHH174B1 (VHH)
VHH: QVQLVESGGGAVQAGGSLRLSCAASGLTSRHYVMAWFRQAPGIEREFVASIWWGGSTYYADSVKDRFTISRDNAENTVYLQMNSLKPEDTAVYRCAVGTKIGTMGPRYDYWGQGTQVTVSS
B25: VHH233B1 (VHH)
VHH: QVQLVESGGGLVQAGGSLRLSCAASRSISSFNEMAWYRQAPGEQRELVATIVSTVGFTNYADSVKGRFTISRDNAKNTVYLQMNSLKAEDTAVYYCNARRISTDYWGQGTQVTVSS
B26: VHH263B1 (VHH)
VHH: EVQLVESGGGLVQAGGSLRLSCAASGSKFSFNAMGWYRQTPGKQRELVAIIINGDMINYADSVKGRFTISRDNAKNTMYLQMNSLKPEDTAVYYCKMTRYVYDYWGQGTQVTVSS
B27: VHH41B1 (VHH)
VHH: EVQLVESGGGLVQAGGSLRVACAASGRTFSTYAMAWFRQAPGKEREFVAHILWSGGSTVYPDSVRGRFTISRDNAKNTVYLQMNSLKPEDTAVYYCAQKSGRQVYRIDSWDSFDYWGQGTSVTVSS

What was measured:
[1] = target: T1, human IL-12Rβ1-his (Acro Biosystems), biotinylated (human, UniProt P42701 24-545, biotinylated); experiment: ELISA, periplasmic extract
T1 construct: bought; captured on Neutravidin in the ELISA; also called Bio-huIL-12Rβ1-His

[2] = target: T2, human IL-12RB1 with C-terminal FLAG tag, transiently expressed on HEK-293T cells (human, UniProt P42701 24-662); experiment: FACS, periplasmic extract, HEK-293T
T2 construct: whole, on cells

[3] = target: T3, cyno IL-12RB1 with C-terminal FLAG tag, transiently expressed on HEK-293T cells (cyno, UniProt A0A2K5VWV1 24-662); experiment: FACS, periplasmic extract, HEK-293T
T3 construct: whole, on cells

Binder | OD450 nm [1] | FOB [2] [fold] | FOB [3] [fold]
B1 | 0.479 | 160 | 121
B2 | 0.125 | 86 | 42
B3 | 3.12 | 78 | 36
B4 | 1.98 | 117 | 120
B5 | 2.85 | 24 | 21
B6 | 0.422 | 104 | 64
B7 | 2.93 | 78 | 58
B8 | 3.2 | 31 | 24
B9 | 0.822 | 43 | 19
B10 | 2.93 | 88 | 82
B11 | 0.151 | 132 | 106
B12 | 2.97 | 152 | 161
B13 | 2.84 | 80 | 88
B14 | 3.03 | 82 | 88
B15 | 3.14 | 75.1 | 50
B16 | 1.9 | 101 | 62
B17 | 2.73 | 260 | 184
B18 | 0.409 | 133 | 99
B19 | 1.06 | 119 | 93
B20 | 1.28 | 78 | 129
B21 | 3.3 | 183 | 91
B22 | 3.33 | 50 | 44
B23 | 3.31 | 116 | 152
B24 | 1.19 | 80 | 68
B25 | 0.349 | 146 | 81
B26 | 0.144 | 105 | 89
B27 | 0.413 | 48 | 19
